Target: the molecule itself
Test: SEC; Superdex-200 Increase column, 25 mM Tris-HCl (pH 8.0), 10% (v/v) glycerol, 100 mM NaCl; retention time of mutants compared with wild type

Protein	stoichiometry N
OphMA wild type, full-length, His8-tagged (enzyme, Omphalotus olearius, UniProt A0A2R2JFI5 1-417, looked up, backbone N-methylation: most abundant species with complete methylation of the core peptide (9-fold) and an additional methylation at Val413) METSTQTKAGSLTIVGTGIESIGQMTLQALSYIEAAAKVFYCVIDPATEAFILTKNKNCVDLYQYYDNGKSRLNTYTQMSELMVREVRKGLDVVGVFYGHPGVFVNPSHRALAIAKSEGYRARMLPGVSAEDCLFADLCIDPSNPGCLTYEASDFLIRDRPVSIHSHLVLFQVGCVGIADFNFTGFDNNKFGVLVDRLEQEYGAEHPVVHYIAAMMPHQDPVTDKYTVAQLREPEIAKRVGGVSTFYIPPKARKASNLDIIRRLELLPAGQVPDKKARIYPANQWEPDVPEVEPYRPSDQAAIAQLADHAPPEQYQPLATSKAMSDVMTKLALDPKALADYKADHRAFAQSVPDLTPQERAALELGDSWAIRCAMKNMPSSLLDAARESGEEASQNGFPWVIVVGVIGVIGSVMSTE	2
OphMA I407E, full-length, His-tagged (enzyme, backbone N-methylation: peptides with 5 methylations) METSTQTKAGSLTIVGTGIESIGQMTLQALSYIEAAAKVFYCVIDPATEAFILTKNKNCVDLYQYYDNGKSRLNTYTQMSELMVREVRKGLDVVGVFYGHPGVFVNPSHRALAIAKSEGYRARMLPGVSAEDCLFADLCIDPSNPGCLTYEASDFLIRDRPVSIHSHLVLFQVGCVGIADFNFTGFDNNKFGVLVDRLEQEYGAEHPVVHYIAAMMPHQDPVTDKYTVAQLREPEIAKRVGGVSTFYIPPKARKASNLDIIRRLELLPAGQVPDKKARIYPANQWEPDVPEVEPYRPSDQAAIAQLADHAPPEQYQPLATSKAMSDVMTKLALDPKALADYKADHRAFAQSVPDLTPQERAALELGDSWAIRCAMKNMPSSLLDAARESGEEASQNGFPWVIVVGVEGVIGSVMSTE	2
OphMA V403E, full-length, His-tagged (enzyme, backbone N-methylation: peptides with 1 methylation) METSTQTKAGSLTIVGTGIESIGQMTLQALSYIEAAAKVFYCVIDPATEAFILTKNKNCVDLYQYYDNGKSRLNTYTQMSELMVREVRKGLDVVGVFYGHPGVFVNPSHRALAIAKSEGYRARMLPGVSAEDCLFADLCIDPSNPGCLTYEASDFLIRDRPVSIHSHLVLFQVGCVGIADFNFTGFDNNKFGVLVDRLEQEYGAEHPVVHYIAAMMPHQDPVTDKYTVAQLREPEIAKRVGGVSTFYIPPKARKASNLDIIRRLELLPAGQVPDKKARIYPANQWEPDVPEVEPYRPSDQAAIAQLADHAPPEQYQPLATSKAMSDVMTKLALDPKALADYKADHRAFAQSVPDLTPQERAALELGDSWAIRCAMKNMPSSLLDAARESGEEASQNGFPWVIEVGVIGVIGSVMSTE	2
OphMA V403R, full-length, His-tagged (enzyme, backbone N-methylation: dominant species unmethylated, next most abundant with two methylations) METSTQTKAGSLTIVGTGIESIGQMTLQALSYIEAAAKVFYCVIDPATEAFILTKNKNCVDLYQYYDNGKSRLNTYTQMSELMVREVRKGLDVVGVFYGHPGVFVNPSHRALAIAKSEGYRARMLPGVSAEDCLFADLCIDPSNPGCLTYEASDFLIRDRPVSIHSHLVLFQVGCVGIADFNFTGFDNNKFGVLVDRLEQEYGAEHPVVHYIAAMMPHQDPVTDKYTVAQLREPEIAKRVGGVSTFYIPPKARKASNLDIIRRLELLPAGQVPDKKARIYPANQWEPDVPEVEPYRPSDQAAIAQLADHAPPEQYQPLATSKAMSDVMTKLALDPKALADYKADHRAFAQSVPDLTPQERAALELGDSWAIRCAMKNMPSSLLDAARESGEEASQNGFPWVIRVGVIGVIGSVMSTE	2
OphMA I407R, full-length, His-tagged (enzyme, backbone N-methylation: dominant species carried three methylations) METSTQTKAGSLTIVGTGIESIGQMTLQALSYIEAAAKVFYCVIDPATEAFILTKNKNCVDLYQYYDNGKSRLNTYTQMSELMVREVRKGLDVVGVFYGHPGVFVNPSHRALAIAKSEGYRARMLPGVSAEDCLFADLCIDPSNPGCLTYEASDFLIRDRPVSIHSHLVLFQVGCVGIADFNFTGFDNNKFGVLVDRLEQEYGAEHPVVHYIAAMMPHQDPVTDKYTVAQLREPEIAKRVGGVSTFYIPPKARKASNLDIIRRLELLPAGQVPDKKARIYPANQWEPDVPEVEPYRPSDQAAIAQLADHAPPEQYQPLATSKAMSDVMTKLALDPKALADYKADHRAFAQSVPDLTPQERAALELGDSWAIRCAMKNMPSSLLDAARESGEEASQNGFPWVIVVGVRGVIGSVMSTE	2
OphMA V404E, full-length, His-tagged (in vivo methylation series) (enzyme, backbone N-methylation: peptides with 2 methylations) METSTQTKAGSLTIVGTGIESIGQMTLQALSYIEAAAKVFYCVIDPATEAFILTKNKNCVDLYQYYDNGKSRLNTYTQMSELMVREVRKGLDVVGVFYGHPGVFVNPSHRALAIAKSEGYRARMLPGVSAEDCLFADLCIDPSNPGCLTYEASDFLIRDRPVSIHSHLVLFQVGCVGIADFNFTGFDNNKFGVLVDRLEQEYGAEHPVVHYIAAMMPHQDPVTDKYTVAQLREPEIAKRVGGVSTFYIPPKARKASNLDIIRRLELLPAGQVPDKKARIYPANQWEPDVPEVEPYRPSDQAAIAQLADHAPPEQYQPLATSKAMSDVMTKLALDPKALADYKADHRAFAQSVPDLTPQERAALELGDSWAIRCAMKNMPSSLLDAARESGEEASQNGFPWVIVEGVIGVIGSVMSTE	2
OphMA V406E, full-length, His-tagged (enzyme, backbone N-methylation: mixture of similarly abundant peptides containing 4, 5, or 6 methylations) METSTQTKAGSLTIVGTGIESIGQMTLQALSYIEAAAKVFYCVIDPATEAFILTKNKNCVDLYQYYDNGKSRLNTYTQMSELMVREVRKGLDVVGVFYGHPGVFVNPSHRALAIAKSEGYRARMLPGVSAEDCLFADLCIDPSNPGCLTYEASDFLIRDRPVSIHSHLVLFQVGCVGIADFNFTGFDNNKFGVLVDRLEQEYGAEHPVVHYIAAMMPHQDPVTDKYTVAQLREPEIAKRVGGVSTFYIPPKARKASNLDIIRRLELLPAGQVPDKKARIYPANQWEPDVPEVEPYRPSDQAAIAQLADHAPPEQYQPLATSKAMSDVMTKLALDPKALADYKADHRAFAQSVPDLTPQERAALELGDSWAIRCAMKNMPSSLLDAARESGEEASQNGFPWVIVVGEIGVIGSVMSTE	2
OphMA V406P, full-length, His-tagged (in vivo methylation series) (enzyme, backbone N-methylation: dominant species unmethylated, evidence for two and four methylations) METSTQTKAGSLTIVGTGIESIGQMTLQALSYIEAAAKVFYCVIDPATEAFILTKNKNCVDLYQYYDNGKSRLNTYTQMSELMVREVRKGLDVVGVFYGHPGVFVNPSHRALAIAKSEGYRARMLPGVSAEDCLFADLCIDPSNPGCLTYEASDFLIRDRPVSIHSHLVLFQVGCVGIADFNFTGFDNNKFGVLVDRLEQEYGAEHPVVHYIAAMMPHQDPVTDKYTVAQLREPEIAKRVGGVSTFYIPPKARKASNLDIIRRLELLPAGQVPDKKARIYPANQWEPDVPEVEPYRPSDQAAIAQLADHAPPEQYQPLATSKAMSDVMTKLALDPKALADYKADHRAFAQSVPDLTPQERAALELGDSWAIRCAMKNMPSSLLDAARESGEEASQNGFPWVIVVGPIGVIGSVMSTE	2
OphMA I407P, full-length, His-tagged (in vivo methylation series) (enzyme, backbone N-methylation: a variety of species (two to four methylations), evidence of up to six) METSTQTKAGSLTIVGTGIESIGQMTLQALSYIEAAAKVFYCVIDPATEAFILTKNKNCVDLYQYYDNGKSRLNTYTQMSELMVREVRKGLDVVGVFYGHPGVFVNPSHRALAIAKSEGYRARMLPGVSAEDCLFADLCIDPSNPGCLTYEASDFLIRDRPVSIHSHLVLFQVGCVGIADFNFTGFDNNKFGVLVDRLEQEYGAEHPVVHYIAAMMPHQDPVTDKYTVAQLREPEIAKRVGGVSTFYIPPKARKASNLDIIRRLELLPAGQVPDKKARIYPANQWEPDVPEVEPYRPSDQAAIAQLADHAPPEQYQPLATSKAMSDVMTKLALDPKALADYKADHRAFAQSVPDLTPQERAALELGDSWAIRCAMKNMPSSLLDAARESGEEASQNGFPWVIVVGVPGVIGSVMSTE	2
OphMA V403P, full-length, His-tagged (enzyme, backbone N-methylation: dominant species unmethylated, evidence for two methylations) METSTQTKAGSLTIVGTGIESIGQMTLQALSYIEAAAKVFYCVIDPATEAFILTKNKNCVDLYQYYDNGKSRLNTYTQMSELMVREVRKGLDVVGVFYGHPGVFVNPSHRALAIAKSEGYRARMLPGVSAEDCLFADLCIDPSNPGCLTYEASDFLIRDRPVSIHSHLVLFQVGCVGIADFNFTGFDNNKFGVLVDRLEQEYGAEHPVVHYIAAMMPHQDPVTDKYTVAQLREPEIAKRVGGVSTFYIPPKARKASNLDIIRRLELLPAGQVPDKKARIYPANQWEPDVPEVEPYRPSDQAAIAQLADHAPPEQYQPLATSKAMSDVMTKLALDPKALADYKADHRAFAQSVPDLTPQERAALELGDSWAIRCAMKNMPSSLLDAARESGEEASQNGFPWVIPVGVIGVIGSVMSTE	2
OphMA V404R, full-length, His-tagged (enzyme, backbone N-methylation: dominant species unmethylated, next most abundant with two methylations) METSTQTKAGSLTIVGTGIESIGQMTLQALSYIEAAAKVFYCVIDPATEAFILTKNKNCVDLYQYYDNGKSRLNTYTQMSELMVREVRKGLDVVGVFYGHPGVFVNPSHRALAIAKSEGYRARMLPGVSAEDCLFADLCIDPSNPGCLTYEASDFLIRDRPVSIHSHLVLFQVGCVGIADFNFTGFDNNKFGVLVDRLEQEYGAEHPVVHYIAAMMPHQDPVTDKYTVAQLREPEIAKRVGGVSTFYIPPKARKASNLDIIRRLELLPAGQVPDKKARIYPANQWEPDVPEVEPYRPSDQAAIAQLADHAPPEQYQPLATSKAMSDVMTKLALDPKALADYKADHRAFAQSVPDLTPQERAALELGDSWAIRCAMKNMPSSLLDAARESGEEASQNGFPWVIVRGVIGVIGSVMSTE	2
OphMA V406R, full-length, His-tagged (enzyme, backbone N-methylation: dominant species unmethylated, next most abundant with two methylations) METSTQTKAGSLTIVGTGIESIGQMTLQALSYIEAAAKVFYCVIDPATEAFILTKNKNCVDLYQYYDNGKSRLNTYTQMSELMVREVRKGLDVVGVFYGHPGVFVNPSHRALAIAKSEGYRARMLPGVSAEDCLFADLCIDPSNPGCLTYEASDFLIRDRPVSIHSHLVLFQVGCVGIADFNFTGFDNNKFGVLVDRLEQEYGAEHPVVHYIAAMMPHQDPVTDKYTVAQLREPEIAKRVGGVSTFYIPPKARKASNLDIIRRLELLPAGQVPDKKARIYPANQWEPDVPEVEPYRPSDQAAIAQLADHAPPEQYQPLATSKAMSDVMTKLALDPKALADYKADHRAFAQSVPDLTPQERAALELGDSWAIRCAMKNMPSSLLDAARESGEEASQNGFPWVIVVGRIGVIGSVMSTE	2
OphMA V403T, full-length, His-tagged (enzyme, backbone N-methylation: 10-fold methylated species most abundant) METSTQTKAGSLTIVGTGIESIGQMTLQALSYIEAAAKVFYCVIDPATEAFILTKNKNCVDLYQYYDNGKSRLNTYTQMSELMVREVRKGLDVVGVFYGHPGVFVNPSHRALAIAKSEGYRARMLPGVSAEDCLFADLCIDPSNPGCLTYEASDFLIRDRPVSIHSHLVLFQVGCVGIADFNFTGFDNNKFGVLVDRLEQEYGAEHPVVHYIAAMMPHQDPVTDKYTVAQLREPEIAKRVGGVSTFYIPPKARKASNLDIIRRLELLPAGQVPDKKARIYPANQWEPDVPEVEPYRPSDQAAIAQLADHAPPEQYQPLATSKAMSDVMTKLALDPKALADYKADHRAFAQSVPDLTPQERAALELGDSWAIRCAMKNMPSSLLDAARESGEEASQNGFPWVITVGVIGVIGSVMSTE	2
